Laboratory results from patent publication US8620595B2, “Methods for determining the retention of peptides in reverse phase chromatography using linear solvent strength theory” (University of Manitoba, priority 2010, dated 2013).

Experiment: Determination of S from retention time shift Δ relative to P3 at two gradient slopes, nano-RP-HPLC MS of spiked tryptic digest
Format: physicochemical
Details: experimental S value, LC-MS runs of model peptide mixture
Experimental: Proteins and protein digestion. Tryptic digests of two different protein mixtures were utilized. The “test peptide mixture” contained human proteins: albumin, transferrin, fibrinogen. The “model peptide mixture” contained bovine proteins: albumin, transferrin, fibrinogen, catalase. Equimolar mixtures of the proteins were prepared, reduced with DTT, alkylated with iodoacetamide and digested with sequencing-grade modified trypsin (Promega, Madison, Wis.). Prior to nano-LC MS/MS analysis, mixtures were diluted with buffer A (0.1% formic acid in water) and spiked with the 6 standard peptides P1-P6^24 for test mixture and the set of 11 model peptides (described elsewhere^23) for a model mixture. All dilutions were performed to provide an injection of ˜100 fmole of each component into the nanoRP-HPLC MS system.
Chromatography. All chromatographic experiments were conducted at a controlled temperature of 22-23° C. For isocratic measurement of the slope values, a micro-Agilent 1100 Series system (Agilent Technologies, Wilmington, Del.), was used with a 1 mm×100 mm 5 μm Luna C18(2) (Phenomenex, Torrance, Calif.) column and a UV detector operated at 214 nm. Both eluents A (water) and B (acetonitrile) contained 0.1% formic acid as ion-pairing modifier. Stock solutions of the 11 standard peptides (˜1 mg/ml) were prepared by dissolving each peptide in 1 ml of 0.1% FA in water or a 20% acetonitrile solution. Ten microliters of sample was injected. Individual peptides were diluted to provide ˜0.5-1 μg injection of each component using a 10 μl loop. The dead volume of the column and connecting tubings was determined by injecting a non-retained compound (water) and measuring the elution time of the negative peak at a 150 μL/min flow rate. Retention factors for isocratic elution were calculated using the formula: k=(tR−t0)/t0c; where tR is the retention time, t0 is the system (column and tubings) dead time, and t0c is the column dead time. Additional details of measuring S-values via constructing log k vs. φ plots are provided elsewhere.^24 The nano-LC MS/MS experiments were conducted using splitless Tempo LC system (Eksigent, Dublin, Calif.) with 20 μL sample injection via a 300 μm×5 mm PepMap100 (Dionex, Sunnyvale, Calif.) trap-column and a 100 μm×200 mm analytical column packed with 5 μm Luna C18(2) (Phenomenex, Torrance, Calif.). Tryptic digests of the mixtures were spiked with calibrating peptides (see Table 1) as described above, injected on the trap-column using buffer A as a carrier and separated using 0.1875, 0.375 and 0.75 percent acetonitrile per minute linear gradients starting from 0.5% acetonitrile at 500 nL/min flow rate. The composition of both eluents A and B was identical to one described above for normal-flow system. Gradient programs consisted of a 0.5-40% linear increase of buffer B in 213.2, 106.6 and 53.3 minutes, respectively. After each run the gradient columns were washed with 80% B for 3 minutes and equilibrated with the starting A:B ratio for 18 minutes.
Mass spectrometry. A QStar Elite mass spectrometer (Applied Biosystems, Foster City, Calif.) equipped with a MicrolonSpray II source was used in standard MS/MS information dependent acquisition (IDA) mode for LC-ESI analyses. Protein identification was performed using Protein Pilot 3.0 (Applied Biosystems, Foster City, Calif.) with a restricted database containing target protein sequences and the sequences of standard peptides. Retention times of identified species (peak maxima) were assigned manually.
These two ways of measurement have been combined to provide a highly accurate and fast way of determining S for an extensive sets of peptides (see FIG. 3). First, precise isocratic measurement of S is performed in normal flow conditions with UV detection for a set of synthetic “S-calibrating” peptides. […]

| Substance | Slope (experimental) |
| --- | --- |
| KEEAPSLRPVPPPISGGGYR | 42.646 |
| KKEEAPSLRPVPPPISGGGYR | 44.873 |
| KLGAPSITCVR | 37.615 |
| KNWIQYK | 31.919 |
| KPVTDAENCHLAR | 48.023 |
| KPVTEAQSCHLAVAPNHAVVSR | 49.479 |
| KTYDSYLGDDYVR | 35.968 |
| KVIEQVQR | 43.582 |
| KVPQVSTPTLVEVSR | 37.64 |
| KYAAELHLVHWNTK | 39.205 |
| LAGGGSASSSAHAAAFR | 44.118 |
| LAGGSASSADAAFR | 34.509 |
| LAGGSASSAHAAFR | 42.588 |
| LAGSASADAFR | 32.092 |
| LAGSASAHAFR | 40.64 |
| LAHEDPDYGLR | 36.832 |
| LASAADFR | 29.663 |
| LASAAHFR | 38.571 |
| LAVAAHFR | 34.392 |
| LCALCAGDDQGLDK | 33.517 |
| LCENIAGHLK | 37.285 |
| LCQLCAGK | 34.229 |

| Substance | Slope (experimental) |
| --- | --- |
| LCVLHEK | 34.16 |
| LDGSLDFK | 25.689 |
| LESDVSTQMEYCR | 35.968 |
| LFAYPDTHR | 31.897 |
| LGAPSITCVR | 32.708 |
| LGEYGFQNALIVR | 29.764 |
| LGPNYLQIPVNCPYR | 32.953 |
| LKECCDKPLLEK | 42.82 |
| LKPDPNTLCDEFK | 36.757 |
| LKPDPNTLCDEFKADEK | 41.815 |
| LLEACTFHKP | 36.237 |
| LLGGGSLSSSLDAAAFR | 32.333 |
| LLGGGSLSSSLHAAAFR | 35.968 |
| LLGGSLSSLDAAFR | 30.604 |
| LLGGSLSSLHAAFR | 34.021 |
| LLGSLSLDAFR | 28.402 |
| LLGSLSLHAFR | 31.94 |
| LLHAAHFR | 39.794 |
| LLHLAHFR | 33.837 |
| LLHLLHFR | 31.51 |
| LLIEMEDWK | 26.865 |
| LLIEMEDWKGDK | 30.791 |

| Substance | Slope (experimental) |
| --- | --- |
| LLLGGDFR | 22.643 |
| LLLLDFR | 23.297 |
| LLLLLDFR | 22.983 |
| LLSAADFR | 25.969 |
| LLSAAHFR | 32.998 |
| LLSLADFR | 25.239 |
| LLSLAHFR | 29.303 |
| LLSLLDFR | 24.464 |
| LLSLLHFR | 28.039 |
| LLVAAHFR | 31.212 |
| LLVLAHFR | 28.115 |
| LLVLLHFR | 27.548 |
| LNELR | 32.443 |
| LNSLTVGPR | 30.791 |
| LQDTLVR | 29.045 |
| LRDSLFNYQK | 31.66 |
| LRPVAAEIYGTK | 34.815 |
| LSQKFPK | 38.913 |
| LVNELTEFAK | 27.906 |
| LVTDLTK | 28.077 |
| LYKELPDPQESIQR | 39.098 |
| MEDEAESLEDLGFK | 29.603 |

| Substance | Slope (experimental) |
| --- | --- |
| MKGLIDEVDQDFTSR | 33.2 |
| MSTITGPVPR | 32.509 |
| NECFLSHKDDSPDLPK | 41.14 |
| NFSDVHPEYGSR | 37.948 |
| NIVELMR | 24.282 |
| NLLFNDNTECLAK | 28.81 |
| NLNREDFR | 36.957 |
| NLRETAEEVK | 40.778 |
| NLSVEDAAR | 32.289 |
| NTPEKGYLAVAVVK | 34.392 |
| NTVDSVSR | 40.092 |
| NWIQYK | 26.629 |
| QAYPNLCQLCK | 32.399 |
| QEPERNECFLSHKDDSPDLPK | 45.147 |
| QFVSSSTTVNR | 37.462 |
| QNCDQFEK | 36.657 |
| QNQVQDNENWNEYSSHLEK | 40.065 |
| QTALVELLK | 24.2 |
| QVLLHQQALFGK | 33.087 |
| RAFALECIR | 31.043 |
| RHPYFYAPELLYYANK | 35.968 |
| RLCENIAGHLK | 40.229 |

| Substance | Slope (experimental) |
| --- | --- |
| RLDGSLDFKK | 35.968 |
| RPCFSALTPDETYVPK | 38.129 |
| RTPIAVR | 39.365 |
| RWQWR | 27.269 |
| SILENLR | 24.865 |
| SMMEEIMK | 25.394 |
| SNLQLLR | 24.614 |
| SQLQEAPLEWK | 28.576 |
| TFYLK | 22.874 |
| THFSGDVQR | 42.53 |
| TPCTVTCNIPVVSGK | 34.721 |
| TPIAVR | 33.313 |
| TSDANINWNNLK | 30.109 |
| TSDANINWNNLKDKK | 39.525 |
| TSSSTFQYITLLK | 29.703 |
| TSTADYASFK | 30.833 |
| TVMENFVAFVDK | 28.849 |
| TYDSYLGDDYVR | 31.66 |
| VDLEDYK | 28.987 |
| VFEHIGK | 34.229 |
| VFEHIGKR | 41.112 |
| VGDANPALQK | 38.388 |

Same assay, conditions: experimental S, LC-MS runs of model peptide mixture, formic acid

| Substance | Slope (experimental) |
| --- | --- |
| KENFEVLCK | 27.567 |
| KFWGK | 27.604 |
| KGSNFQLDQLQGR | 33.883 |
| KNYELLCGDNTR | 33.631 |
| KPPDADGCLHADPDLGVLCPTGCK | 40.448 |
| KQTALVELLK | 27.642 |
| KYCGVPGEYWLGNDR | 33.065 |
| LAGGGSASSSADAAAFR | 35.894 |
| LAIGEGQQHQLGGAK | 39.74 |
| LGGGGGGDFR | 31.043 |
| LLCLDGTR | 25.325 |
| LLGGGGDFR | 25.846 |
| MVLETFGGDGHAR | 31.001 |
| NCPDKFCLFK | 28.518 |
| NYELLCGDNTR | 27.868 |
| NYELLCGDNTRK | 31.767 |
| QDGSVDFGR | 28.518 |

| Substance | Slope (experimental) |
| --- | --- |
| QGFGNIATNAEGK | 31.595 |
| QGFGNIATNAEGKK | 37.184 |
| QSPVDIDTK | 31.703 |
| RHPEYAVSVLLR | 32.553 |
| RLDGSLDFK | 29.845 |
| SEDGSDCGDADFDWHHTFPSR | 37.158 |
| SFQLFGSPPGQR | 24.764 |
| SHCIAEVEK | 41.223 |
| SIEDLR | 28.058 |
| SLHTLFGDELCK | 30.438 |
| SVDGKEDLIWK | 30.068 |
| TCVADESHAGCEK | 47.601 |
| TGLAPEFAALGESGSSSSK | 28.402 |
| TGQIFK | 24.984 |
| TSHMDCIK | 40.393 |
| VDSALYLGSR | 27.122 |

Same assay, conditions: model peptide mixture (tryptic digest of bovine proteins), 0.75 and 0.1875% acetonitrile per minute gradients, formic acid, S from Δ vs. S curve of S-calibrating peptides

| Substance | experimental S-value |
| --- | --- |
| KPVTEAQSCHLAVAPNHAWSR (KPVTEAQSCHLAVAPNHAVVSR) [tryptic peptide of the model peptide mixture, 5 positively charged groups] | 49.5 |
